Source: the domain aggregation screens of Martell et al. (2025)

Assay: soluble fraction after stress (log2 fold change); higher = more stays soluble; pooled small domains, quantitative proteomics
Settings: stress: 75 degC
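Also: 20 min heating vs room temperature control held 20 min.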

Question: With “HMKPLRPVHLEIQTHRLSPVGILRSSFRQAGKVMHSNHGRITGLNLEQLKLIQAAFAGEALPK” as the sequence, how does the “soluble fraction (log2)” value read?
Answer: -0.158

Question: Which “soluble fraction (log2)” value does the source give for “HMKPQIRRHEKITALVREHGFMSVEQLARELEVTPQTIRRDIGILSAENVLRRYHGGAALGD” here?
Answer: -0.941

Question: With “HMKPSNLTSDERTQLLAQLKTAMGSDQYNQLRRQVGEEKLLEYVLDNVPGIQEEILGNRAVQENIDLH” as the sequence, how does the “soluble fraction (log2)” value read?
Answer: 0.0107

Question: Which “soluble fraction (log2)” value does the source give for “HMKPSTVSVPDVSGDKLSTAKMIIRKSGLKVGDVQKIEDDNVGAGKVVRTNPSAGSKKREGSSVDIFVASA” here?
Answer: -0.0331

Question: With “HMKPTVKGHFTRKESNVGGYADVRGWGVAGTPSMMANQSKDTRRFSTLIVPGRSVNVHPSPTKEAIIWWQS” as the sequence, how does the “soluble fraction (log2)” value read?
Answer: -0.224

Question: For “HMKPTVKKLLAALPELRSGQPLHLSVATRKLRDAGLLGKNASSPTLFRNYVAQFELIPENQPNAVRYR”, which “soluble fraction (log2)” value is on record?
Answer: -0.786

Question: Which “soluble fraction (log2)” value does the source give for “HMKPVSEMDNMEWVREQYFQNMIYEIGEWVKDKKTGIVGEIVKRGTNYVTIVQEDFSLHKIWLEDLETTE” here?
Answer: -0.428

Question: For “HMKQDYYSILGVMRDASQEEIKRAYLDAAQRLHPDRNTSAGDTEMFLDVQQAYEVLSNPKRRAQYDATLP”, which “soluble fraction (log2)” value is on record?
Answer: 0.383

Question: Which “soluble fraction (log2)” value does the source give for “HMKQEFEMGLPNGVGEQMLAHAIEKFDVKLEHSEFGPKLIGTYEELEKAKVFLYEAIEARLNQLE” here?
Answer: 0.279

Question: For “HMKQISNTDELETMVKKIIDDNEEQVNKYRGGNEKLFGWFVGQAMKNTGGTANPKVVNEILSKLLK”, which “soluble fraction (log2)” value is on record?
Answer: -0.0646

Question: Which “soluble fraction (log2)” value does the source give for “HMKQLLHLVIGGELKDVRGIEFEDLSKIDFVGAFPSYKAAYDAWKNAAQRTVDNAEMRYFILHAHR” here?
Answer: -1.92

Question: Which “soluble fraction (log2)” value does the source give for “HMKQLRVLGIVKAGSILKNSDGSIEFVIEDSGKSLLVKYKGVIPDIFKDGVEAVVEGDLRGSVFNADKLF” here?
Answer: -1.14

Question: Which “soluble fraction (log2)” value does the source give for “HMKQMNETQQKAFEIYLDSATFETDYKPISEEQLAAKLDALGLKGSSSSINRWKKDFNWAQALQNKVTLAM” here?
Answer: -0.166

Question: Which “soluble fraction (log2)” value does the source give for “HMKQQNFADLAGRFVFNADNEVVFNFGKHKNVPVATVLKNEPGYYGWMMGGDFPLFTKKILKQIKEA” here?
Answer: -1.05

Question: For “HMKQTFGAMLAALRKEKGMTQLELAEQMGVTDKAVSKWERDLSFPDVTSLPRLAEILEVSVDELMQ”, which “soluble fraction (log2)” value is on record?
Answer: -0.146

Question: For “HMKQVNVVSVIGQSEANAKTTLTGLGLKVNVAYEEDTSKADGIVLKQSLEGGKTVNEGTTITITVNKIA”, which “soluble fraction (log2)” value is on record?
Answer: 0.579

Question: Which “soluble fraction (log2)” value does the source give for “HMKQVSDTGAIDAAIREVMDANPDKVAEYRSGKDKLFGFFVGQIMRAMAGKAAPVVVNDRLKALLD” here?
Answer: 0.123

Question: Which “soluble fraction (log2)” value does the source give for “HMKQVTVGGTINAGGARIYADSYGNGGGRQTFGSDPIYTVLQERNGYILTRWHKLSSGYTGWFKKSDVSA” here?
Answer: -0.917

Question: For “HMKQYSFEISKADFKKISENFNFKIINEINDSLIISLNDKNINLDELLIFFVERKIKVRSIENI”, which “soluble fraction (log2)” value is on record?
Answer: -3.69

Question: With “HMKREELTQQTKQNLREAFWSLYIQKPIEKITVKEITDIAGYNRGTFYLYYKDTYDLLAKIE” as the sequence, how does the “soluble fraction (log2)” value read?
Answer: -0.279

Question: Which “soluble fraction (log2)” value does the source give for “HMKRLLLPGDLAGVRRHLLDRENSFHILRVLRLARGSTIEAMDDAGNRFSATLAGVKAGRALFDLAAKI” here?
Answer: -1.75

Question: Which “soluble fraction (log2)” value does the source give for “HMKRLPAQMGGGDGVLRVPGLNNFVYVTIADKTLPAFNNRVPPKKGLRIWVGYSPEEPNLFQVLSTRTD” here?
Answer: -1.83

Question: For “HMKRLPMRKIRDVLRLSADGLSTRKIGVSLTIGRTTVQAYLDRAAEVDLSWPLPPEMSDTDLERLIYPR”, which “soluble fraction (log2)” value is on record?
Answer: -3.14

Question: For “HMKRNLVSVLDHIVGIGPKRRQSLRTHFGSLEKIKEASVEELAAAPGMNRTSAEAVRHFFDAQQELRGK”, which “soluble fraction (log2)” value is on record?
Answer: 0.727

Question: With “HMKRRSVIVSVVRAQVRQSADEAAAVVFEAEKNVSLDYLETMPGGWVKVRHRDGQTGFVRVNQIWG” as the sequence, how does the “soluble fraction (log2)” value read?
Answer: -1.59

Question: For “HMKRSFGYIRLLPSKRYQASYIGPDSQRHAAPETFTRKMDAEGWLSAERRLIEWDQWTSPEQRAAQARLD”, which “soluble fraction (log2)” value is on record?
Answer: -0.663

Question: For “HMKRTRLEEAMDWLREQLNDGPVAYATLKDEAPKAEITLSTLRAAGEALRVDKQKKGVQWGGWTWSLPR”, which “soluble fraction (log2)” value is on record?
Answer: 0.00234

Question: Which “soluble fraction (log2)” value does the source give for “HMKRVTRQRTEILRVIDESERPLGPQEILQAGREAIPSLSIATIYRTLRDLLAEELIKTVALPGDSPRYES” here?
Answer: -1.33

Question: With “HMKSARDDILSALDKAGEPLSMKDIAELSGRKLSTLRAQMTRLVAEGAVQATAAAHSPDRKYRK” as the sequence, how does the “soluble fraction (log2)” value read?
Answer: -0.319

Question: Which “soluble fraction (log2)” value does the source give for “HMKSARQIAILEIIAEKSIETQEDLADALRLRGFQVTQATVSRDIKELRLVKALAPDGTYRYATAEK” here?
Answer: -1.57

Question: For “HMKSEIRKKNSQIILDAAEHEFSVHGYRGTSVQMIADRSGLPKANLHYYYKSKSALYGAVLDRIL”, which “soluble fraction (log2)” value is on record?
Answer: 0.215

Question: Which “soluble fraction (log2)” value does the source give for “HMKSERHALILSLIEKKNVETQEDLAELLKERGVAVTQATVSRDIKELRLIKVLSETGGYKYATVDKAE” here?
Answer: -0.908

Question: Which “soluble fraction (log2)” value does the source give for “HMKSIETVAELVAELKKLNPNAKISNIDGTYTLEEDINTITLPKDFKYDNNLGINNKIDDFTPYISLDVKA” here?
Answer: 0.662

Question: With “HMKSIRIPFILTEGPNSQKITIDIDSDEEFRIGDVFDEDDKLWSINQILISGDRKAKMAIASEVTSISALR” as the sequence, how does the “soluble fraction (log2)” value read?
Answer: -2.01

Question: Which “soluble fraction (log2)” value does the source give for “HMKSKYLIKIEGDFDEKDLYKYLINVSIVNHTKNNGFTEVEFYNDNYSLQQNFLKSMLNDGIIITEFKKVE” here?
Answer: -0.49

Question: For “HMKSLHSEVTDRIRQLIVESHLQPGQRVPELEISRDLGVSRTPIREALKVLAAEGLVELLPLRGAMVK”, which “soluble fraction (log2)” value is on record?
Answer: -0.0555

Question: Which “soluble fraction (log2)” value does the source give for “HMKSLLTARQLEVFEIARNKGYWTTPRKISLVELSKLLDISKSTLSVLLHSIEGKVMEEFYEEIRQ” here?
Answer: -2.22

Question: Which “soluble fraction (log2)” value does the source give for “HMKSNIIPLSLKKPQRLDIFLTNYFVDLSRTQIKKMITDGNIKVNDLIAKPSLKLIGDEIIFYTLPK” here?
Answer: -1.46
